Reference: patent US20110262347A1 (SALK INSTITUTE FOR BIOLOGICAL STUDIES, published 2011)
No end group written: not given here. *: point of attachment. Biotin = O=C1N[C@H]2[C@H](CS[C@H]2CCCCC(=O)*)N1

T1: purified p32 protein
T1 chain: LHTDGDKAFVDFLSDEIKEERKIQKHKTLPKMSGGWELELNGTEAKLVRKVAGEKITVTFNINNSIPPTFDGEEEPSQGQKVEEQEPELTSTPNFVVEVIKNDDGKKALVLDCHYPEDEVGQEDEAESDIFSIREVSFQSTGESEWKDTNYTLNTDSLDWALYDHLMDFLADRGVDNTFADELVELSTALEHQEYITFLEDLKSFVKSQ

T2: p32 protein from mouse liver mitochondria extracts (mouse, UniProt O35658 71-278)
T2 construct: Endogenous protein pulled down from detergent lysate of Balb/c mouse liver mitochondria; also called C1qBP; specific band below 36-kDa
T2 sequence (looked up): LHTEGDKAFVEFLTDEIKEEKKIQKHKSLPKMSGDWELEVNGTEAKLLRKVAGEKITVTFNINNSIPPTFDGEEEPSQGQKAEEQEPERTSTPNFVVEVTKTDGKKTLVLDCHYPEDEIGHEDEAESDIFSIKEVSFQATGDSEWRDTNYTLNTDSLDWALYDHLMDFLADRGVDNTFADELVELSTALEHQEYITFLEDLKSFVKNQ


Key:
purified p32 protein [1] = target: T1, purified p32 protein; assay: saturation binding, ELISA-type: biotin-CGKRK on immobilized purified p32, streptavidin-HRP (FIG. 19)
purified p32 protein [2] = target: T1, purified p32 protein; assay: comparison of the filing's CGKRK-p32 affinity with a literature value for LyP-1
[3] = target: T2, p32 protein from mouse liver …; assay: pull-down from mitochondria extracts, mass spectrometry
Experimental: Affinity chromatography. […] Gel bands excised from silver-stained gels were analyzed by MALDI-TOF mass spectrometry at the Burnham Institute for Medical Research Proteomics Resource.

Kd (purified p32 protein [1]) [µg/mL] | fold affinity relative to LyP-1 (purified p32 protein [2]) [fold] | binding result [3] | Binder
0.2 | 15 | – | Biotin-CGKRK (Labeled form used in the ELISA-type assays on p32-coated wells, detected with streptavidin-HRP; also called biotin-CGKRK; biotin CGKRK) [biotin-labeled CGKRK peptide]
– | – | binds | CGKRK (Synthetic pentapeptide; also called Cys-Gly-Lys-Arg-Lys; non-labeled CGKRK) [CGKRK peptide]
